Experimental findings from patent CN113087789A are described below.

The target in experiment [1] is M13KO7辅助噬菌体 (丝状噬菌体pVIII蛋白) (M13KO7 helper phage (filamentous phage)) (UniProt P69541). The experiment is described as follows: indirect ELISA, plate coated with 1.0×10^9 pfu/mL M13KO7 helper phage, ascites antibody.
Experiment [2] shares this target. Briefly: indirect ELISA, plate coated with 1.0×10^9 pfu/mL M13KO7 helper phage, purified antibody (1.0 mg/mL stock). For orientation: In an ELISA, binding on a coated surface is turned into a signal by an enzyme label.

UniProt P69541, sequence (P69541 24-73): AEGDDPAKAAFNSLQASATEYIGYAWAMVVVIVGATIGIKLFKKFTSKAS

B1: 丝状噬菌体pVIII蛋白单克隆抗体P8E4 (antibody, V domains shown)
VH: QIQLQQSGAELARPGASVRLSCKRSGYTFTTYWLQWLKQRAGQGLEWIGAIYPGNGDTRYFPNFKGQATLTADRSSSTRYLQLSSLASESSAVYYCASLLRTDFAMDYRGQGTSVTVSS
VL: DIVLTQSPASEAVSLGQRATISCRTSESVDTYAISFIHWYQQKPGWPPKLLIYRASNAESGIPARFAGSGSRPDFTLSIRPVEADDVATYYCQQSDKDPGSFGGGTKLEIK
In experiment [1], B1 registered a 效价 (titer, ascites) (fold dilution) of 102000. In experiment [2], this molecule showed a 效价 (titer, purified antibody 1.0 mg/mL) (fold dilution) of 6400.
